This passage reports Kd results from patent publication CN113388031A (SHANGHAI INSTITUTE FOR ADVANCED STUDY OF ZHEJIANG UNIV, dated 2021).

In this assay the target is 新冠病毒RBD蛋白 (SARS-CoV-2 spike receptor binding domain, expressed and purified) (SARS-CoV-2, UniProt P0DTC2 319-541).

B1: 单克隆抗体35B5 (monoclonal antibody 35B5) (antibody, V domains shown, not shown: large carriers)
VH: QVQLLESGGGLVQPGRSLRLSCAASGFTFDDYAMHWVRQAPGKGLEWVSGVSWNSGTIGYADSVKGRFTISRDNAKNSLYLHMRSLRAEDTALYYCAKAVEMVRGLMGLGADPEYGMDVWGQGTTVTVSS
VL: not shown
The term Kd denotes the concentration at which binding is half-saturated. High values mean lower affinity, low ones higher affinity. Take B1: the Kd stood at 2.19 pM.
